Test results taken from publication PMC5572259, “The C-terminal Six Amino Acids of the FNT Channel FocA Are Required for Formate Translocation But Not Homopentamer Integrity” (Frontiers in Microbiology, 2017).
Where “and” joins values, the source holds several entries; their conditions need not be identical. Identical values can stand only once.

B1: FocA5R280 (FocA truncation variant ending with R280, lacking E281, N282, D283, H284 and H285) (domain or fragment, Escherichia coli, UniProt P0AC23 1-280, looked up)
chain: MKADNPFDLLLPAAMAKVAEEAGVYKATKHPLKTFYLAITAGVFISIAFVFYITATTGTGTMPFGMAKLVGGICFSLGLILCVVCGADLFTSTVLIVVAKASGRITWGQLAKNWLNVYFGNLVGALLFVLLMWLSGEYMTANGQWGLNVLQTADHKVHHTFIEAVCLGILANLMVCLAVWMSYSGRSLMDKAFIMVLPVAMFVASGFEHSIANMFMIPMGIVIRDFASPEFWTAVGSAPENFSHLTVMNFITDNLIPVTIGNIIGGGLLVGLTYWVIYLR
notes: FocA, Escherichia coli, stop codon at codon 281 (lacking E281, N282, D283, H284 and H285); also called FocAR280; source: E. coli BL21(DE3) with pfocA5R280, membrane fraction solubilised with DDM, purified (Strep-Tactin-Sepharose); not shown: Strep-tag II, N-terminal, kept
B2: FocA5N282 (FocA truncation variant ending with N282, lacking D283, H284 and H285) (domain or fragment, Escherichia coli, UniProt P0AC23 1-282, looked up)
chain: MKADNPFDLLLPAAMAKVAEEAGVYKATKHPLKTFYLAITAGVFISIAFVFYITATTGTGTMPFGMAKLVGGICFSLGLILCVVCGADLFTSTVLIVVAKASGRITWGQLAKNWLNVYFGNLVGALLFVLLMWLSGEYMTANGQWGLNVLQTADHKVHHTFIEAVCLGILANLMVCLAVWMSYSGRSLMDKAFIMVLPVAMFVASGFEHSIANMFMIPMGIVIRDFASPEFWTAVGSAPENFSHLTVMNFITDNLIPVTIGNIIGGGLLVGLTYWVIYLREN
notes: FocA, Escherichia coli, stop codon at codon 283 (lacking D283, H284 and H285); source: E. coli BL21(DE3) with pfocA5N282, membrane fraction solubilised with DDM, purified (Strep-Tactin-Sepharose); not shown: Strep-tag II, N-terminal, kept
B3: N-terminally Strep-tagged FocA (native, full-length formate channel FocA of Escherichia coli) (natural protein, UniProt P0AC23 1-285, looked up)
chain: MKADNPFDLLLPAAMAKVAEEAGVYKATKHPLKTFYLAITAGVFISIAFVFYITATTGTGTMPFGMAKLVGGICFSLGLILCVVCGADLFTSTVLIVVAKASGRITWGQLAKNWLNVYFGNLVGALLFVLLMWLSGEYMTANGQWGLNVLQTADHKVHHTFIEAVCLGILANLMVCLAVWMSYSGRSLMDKAFIMVLPVAMFVASGFEHSIANMFMIPMGIVIRDFASPEFWTAVGSAPENFSHLTVMNFITDNLIPVTIGNIIGGGLLVGLTYWVIYLRENDHH
notes: Formate channel FocA, Escherichia coli, full length (ends with H285; C-terminal residues after R280 are ENDHH); Kept in 2 mM DDM after purification; also called FocA5; native FocA5; source: E. coli BL21(DE3) with pfocA5 (pASK-IBA5focA), membrane fraction solubilised with DDM, purified (Strep-Tactin-Sepharose); not shown: Strep-tag II, N-terminal, kept
B4: FocA5H284 (FocA truncation variant ending with H284, lacking H285) (domain or fragment, Escherichia coli, UniProt P0AC23 1-284, looked up)
chain: MKADNPFDLLLPAAMAKVAEEAGVYKATKHPLKTFYLAITAGVFISIAFVFYITATTGTGTMPFGMAKLVGGICFSLGLILCVVCGADLFTSTVLIVVAKASGRITWGQLAKNWLNVYFGNLVGALLFVLLMWLSGEYMTANGQWGLNVLQTADHKVHHTFIEAVCLGILANLMVCLAVWMSYSGRSLMDKAFIMVLPVAMFVASGFEHSIANMFMIPMGIVIRDFASPEFWTAVGSAPENFSHLTVMNFITDNLIPVTIGNIIGGGLLVGLTYWVIYLRENDH
notes: FocA, Escherichia coli, stop codon at codon 285 (lacking H285); source: E. coli BL21(DE3) with pfocA5H284, membrane fraction solubilised with DDM, purified (Strep-Tactin-Sepharose); not shown: Strep-tag II, N-terminal, kept
B5: FocA5L279 (FocA truncation variant ending with L279, lacking R280, E281, N282, D283, H284 and H285) (domain or fragment, Escherichia coli, UniProt P0AC23 1-279, looked up)
chain: MKADNPFDLLLPAAMAKVAEEAGVYKATKHPLKTFYLAITAGVFISIAFVFYITATTGTGTMPFGMAKLVGGICFSLGLILCVVCGADLFTSTVLIVVAKASGRITWGQLAKNWLNVYFGNLVGALLFVLLMWLSGEYMTANGQWGLNVLQTADHKVHHTFIEAVCLGILANLMVCLAVWMSYSGRSLMDKAFIMVLPVAMFVASGFEHSIANMFMIPMGIVIRDFASPEFWTAVGSAPENFSHLTVMNFITDNLIPVTIGNIIGGGLLVGLTYWVIYL
notes: FocA, Escherichia coli, stop codon at codon 280 (lacking R280, E281, N282, D283, H284 and H285); also called FocAL279; source: E. coli BL21(DE3) with pfocAL279 (pfocA5L279), membrane fraction solubilised with DDM, purified (Strep-Tactin-Sepharose); not shown: Strep-tag II, N-terminal, kept
B6: FocA5D283 (FocA truncation variant ending with D283, lacking H284 and H285) (domain or fragment, Escherichia coli, UniProt P0AC23 1-283, looked up)
chain: MKADNPFDLLLPAAMAKVAEEAGVYKATKHPLKTFYLAITAGVFISIAFVFYITATTGTGTMPFGMAKLVGGICFSLGLILCVVCGADLFTSTVLIVVAKASGRITWGQLAKNWLNVYFGNLVGALLFVLLMWLSGEYMTANGQWGLNVLQTADHKVHHTFIEAVCLGILANLMVCLAVWMSYSGRSLMDKAFIMVLPVAMFVASGFEHSIANMFMIPMGIVIRDFASPEFWTAVGSAPENFSHLTVMNFITDNLIPVTIGNIIGGGLLVGLTYWVIYLREND
notes: source: E. coli BL21(DE3) with pfocA5D283, membrane fraction solubilised with DDM, purified (Strep-Tactin-Sepharose); not shown: Strep-tag II, N-terminal, kept
B7: FocA5E281 (FocA truncation variant ending with E281, lacking N282, D283, H284 and H285) (domain or fragment, Escherichia coli, UniProt P0AC23 1-281, looked up)
chain: MKADNPFDLLLPAAMAKVAEEAGVYKATKHPLKTFYLAITAGVFISIAFVFYITATTGTGTMPFGMAKLVGGICFSLGLILCVVCGADLFTSTVLIVVAKASGRITWGQLAKNWLNVYFGNLVGALLFVLLMWLSGEYMTANGQWGLNVLQTADHKVHHTFIEAVCLGILANLMVCLAVWMSYSGRSLMDKAFIMVLPVAMFVASGFEHSIANMFMIPMGIVIRDFASPEFWTAVGSAPENFSHLTVMNFITDNLIPVTIGNIIGGGLLVGLTYWVIYLRE
notes: source: E. coli BL21(DE3) with pfocA5E281, membrane fraction solubilised with DDM, purified (Strep-Tactin-Sepharose); not shown: Strep-tag II, N-terminal, kept

Molecular target: the molecule itself
Experiment: native gel or EMSA; blue-native PAGE, 5-13.5% (w/v polyacrylamide) gradient gel, 5 ug of purified DDM-solubilised FocA variant per lane

Question: For B1, which “stoichiometry N” value is on record?
Answer: Its value is 10 and 5.

Question: How did the “stoichiometry N” value turn out when B2 was run?
Answer: Its value is 10 and 5.

Question: With B3 as the protein, how does the “stoichiometry N” value read?
Answer: The value was 5 and 10.

Question: For B4, which “stoichiometry N” value is on record?
Answer: The value was 10 and 5.

Question: Which “stoichiometry N” value does the source give for B5 here?
Answer: The value was 5 and 10.

Question: How did the “stoichiometry N” value turn out when B6 was run?
Answer: The value was 5.

Question: For B7, which “stoichiometry N” value is on record?
Answer: Its value is 5.
